Experimental data: patent US20250295801A1, “CD25 ANTIBODIES, ANTIBODY DRUG CONJUGATES, AND USES THEREOF” (Seagen Inc., priority 2024, published 2025)

How the values were obtained:
recombinant cyno CD25 = experiment: Saturation binding analysis by ELISA; parameters: species or system cynomolgus; conditions: compared with human CD25, FIG. 1A, 1B, 7
Procedure: Saturation binding ELISA experiments were performed using soluble recombinant antigens, which were diluted to an appropriate concentration in 50 mM carbonate buffer, pH 9.6. To each well of a 96- or 384-well Maxisorb ELISA plate was added 100 μL of soluble antigen. The plate was sealed and stored at 4° C. overnight. The plate was then washed 3-5 times with PBS-T was buffer (PBS, pH 7.4+0.05% Tween-20). The wells were blocked using 300 μL/well of PBS-T buffer containing BSA for 1 hour at room temperature, then washed 3-5 times with PBS-T. Dilutions of antibodies were prepared in blocking buffer and added to each well in a volume of 100 μL. The antibodies were incubated for 1 hour at room temperature, and then washed 3-5 times with PBS-T. HRP-conjugated secondary antibodies (anti-human Fc) were then added and incubated for 1 hour at room temperature. The plate was washed 3-5 times with PBS-T. The ELISA was developed by adding 100 μL of TMB solution and incubating for 3-15 min at room temperature. To stop the reaction, 100 μL of 1 N sulfuric acid was added to each well. The absorbance at 450 nm was determined using a Spectramax 190 plate reader ([…]) and the data plotted using GraphPad Prism 6.
Saturation binding analysis of CD25 antibody SG25Ab-9 and detuned CD25 antibody SG25Ab-9 YH98A on recombinant human and cyno CD25 was assessed by ELISA.

CD25 expressing cells = experiment: Internalization into CD25 expressing cells; assay type: cell-based, human; conditions: FIG. 1E

- binding to recombinant cynomolgus CD25 (recombinant cyno CD25): efficiently bound cynomolgus CD25
B1: SG25Ab-4: human anti-CD25 IgG1 antibody; VH SEQ ID NO: 31, VL SEQ ID NO: 32 (antibody, V domains shown)
VH: EVQLVQSGAEVKKPGESLKISCKGPEYSFNRYWIAWVRQRPGKGLEWMGIIYPGDSDARYSPTFEGHVTLSADMSLTTAYLQWSSLRASDTAMYYCARLGSYYAFDIWGKGTMVTVSS
VL: QSALTQPASVSGSPGQSITIFCTGTSSDVGGYNYVSWYQQHPGKAPKLMIYDVSKRPSGVSNRFSGSKSGNTASLTISGLQAEDEADYYCSSYTSSSTWVFGGGTQLTVL
- internalization into CD25 expressing cells (CD25 expressing cells): efficiently internalized into CD25 expressing cells
